Test results reported in patent US20140287419A1, “Compositions Having Dicamba Decarboxylase Activity and Methods of Use” (priority 2013, published 2014).

Test: 14C assay with IPTG-induced recombinant E. coli cells (14CO2 capture from [14C]-carboxyl-labeled dicamba)
Settings: for Dicamba Decarboxylase Activity: IPTG-induced recombinant E. coli cells, [14C]-carboxyl-labeled dicamba, 14CO2 capture; for Enzymatic Detection level: dicamba decarboxylation activity of the protein of the given SEQ ID NO

B1: 104 (protein)
chain: MANILQEPIDFLKKEELKNIDLSQMSKKERYKIWKRIPKCELHCHLDLCFSADFFVSCIRKYNLQPNLSDEEVLDYYLFAKGGKSLGEFVEKAIKVADIFHDYEVIEDLAKHAVFNKYKEGVVLMEFRYSPTFVAFKYNLDIELIHQAIVKGIKEVVELLDHKIHVALMCIGDTGHEAANIKASADFCLKHKADFVGFDHGGHEVDLKEYKEIFDYVRESGVPLSVHAGEDVTLPNLNTLYSAIQVLKVERIGHGIRVAESQELIDMVKEKNILLEVCPISNVLLKNAKSMDTHPIRQLYDAGVKVSVNSDDPGMFLTNINDDYEELYTHLNFTLEDFMKMNEWALEKSFMDSNIKDKIKNLYF
modifications: Plasmodium Vivax
In the case of B1, the “Dicamba Decarboxylase Activity” value is reported as “No” and the “Enzymatic Detection level” value is reported as “No”.

B2: 102 (protein, listed as Lactobacillus plantarum)
chain: MATKTFKTLDDFLGTHFIYTYDNGWEYEWYAKNDHTVDYRIHGGMVAGRWVTDQKADIVMLTEGIYKISWTEPTGTDVALDFMPNEKKLHGTIFFPKWVEEHPEITVTYQNEHIDLMEQSREKYATYPKLVVPEFANITYMGDAGQNNEDVISEAPYKEMPNDIRNGKYFDQNYHRLNK
For B2, the “Dicamba Decarboxylase Activity” value was “No” and the “Enzymatic Detection level” value was “No”.

B3: 97 (protein, listed as Sphingobium sp.)
chain: MAMMIIDCHGHYTVLPKAHDEWREQQKAAFKAGQPAPPYPEISDDEIRETIEANQLRLIKERGADMTIFSPRASAMAPHVGDQSVAVPWAQACNNLIARVVDLFPETFAGVCMLPQSPEADMTSSIAELERCVNELGFIGCNLNPDPGGGHFKHPPLTDRFWYPFYEKMVELDVPAMIHVSGSCNPAMHATGAYYLAADTIAFMQLLQGNLFADFPTLRFIIPHGGGAVPYHWGRFRGLADMLKQPSLDTLLMNNVFFDTCVYHQPGINLLADVIDNKNILFGSEMVGAVRGIDPTTGHYFDDTKRYIDALDISDQERHAIFEGNTRRVFPRLDAKLKARGL
For B3, the “Dicamba Decarboxylase Activity” value was “No” and the “Enzymatic Detection level” value was “No”.

B4: 98 (protein)
chain: MAIIDCHGHYTTAPAAHDAFRKAQIAHHDDPQQPAPQYPHISDDALRESIEQHQLRLLRERGADMTIFSPRASTMAHHIGNEAVSQVWTQRCNDLIARVVQLYPHTFIGVCQLPQSPGVPISHSIAELERCVNELGFVGCNLNPDPSGGHWNGVPLTDRAWYPFFEKMVELDVPAMVHVSGSCNANFHATGAHYLNADTTAFMQFLEGDLFRDFPSLRFIIPHGGGAVPYHWGRFRGLADMLGKPPLATHVMRNVFFDTCVYHQPGIDLLFEVIDIDNILFGSEMVGAVRGIDPQTGHYFDDTKRYIDALTISDADKRKVFEGNARRVYPRLDAQLRARGL
modifications: Xanthomonas campestris pv.
For B4, the “Dicamba Decarboxylase Activity” value was “No” and the “Enzymatic Detection level” value was “No”.

B5: 101 (protein, listed as Aquifex aeolicus)
chain: MAQKIALCITGASGVIYGIKLLQVLEELDFSVDLVISRNAKVVLKEEHSLTFEEVLKGLKNVRIHEENDFTSPLASGSRLVHYRGVYVVPCSTNTLSCIANGINKNLIHRVGEVALKERVPLVLLVREAPYNEIHLENMLKITRMGGVVVPASPAFYHKPQSIDDMINFVVGKLLDVLRIEHNLYKRWRG
For B5, the “Dicamba Decarboxylase Activity” value was “No” and the “Enzymatic Detection level” value was “No”.

B6: 94 (protein, listed as Bacillus thuringiensis)
chain: MANRGDSNMKSLVGVIMGSTSDWETMKYACDILDELNIPYEKKVVSAHRTPDYMFEYAETARERGLKVIIAGAGGAAHLPGMVAAKTNLPVIGVPVQSKALNGLDSLLSIVQMPGGVPVATVAIGKAGSTNAGLLAAQILGSFHDDIHDALELRREAIEKDVREGSELV
In the case of B6, the “Dicamba Decarboxylase Activity” value is reported as “No” and the “Enzymatic Detection level” value is reported as “No”.

B7: 105 (protein)
chain: MAIDFHVHLDLYPDPVAVARACEERQLTVLSVTTTPAAWRGTLALAAGRPHVWTALGFHPEVVSERAADLPWFDRYLPETRFVGEVGLDGSPSLRGTWTQQFAVFQHILRRCEDHGGRILSIHSRRAESEVLNCLEANPRSGTPILHWYSGSVTELRRAISLGCWFSVGPTMVRTQKGAALIRSMPRDRVLTETDGPFLELDGQAALPWDVKSVVEGLSKIWQIPASEVERIVKENVSRLLGTVR
modifications: Deinococcus radiodurans
For B7, the “Dicamba Decarboxylase Activity” value was “No” and the “Enzymatic Detection level” value was “No”.

B8: 8 (protein, listed as Metarhizium anisopliae)
chain: MARGKINFEEAFELPTLADSSREQAALYIAPKDLDRYIYHIKHPLGERLQLANSHGIGYTIYSLTVPGIQGIPDQSKAEQHATTVNDWIANEIKDHRDRLGAFAALSMHDAAQAAAELERCVRQHGFHGALLNNYQHAGPDGETYLFYDQPAYDVFWQKCVELDVPVYLHPAAPAGNYYKQMYAQRKYLVGPPLSFANDVSLHLLGLVTNGVFDRFPKLKVVVGHLGEHIPFDFWRISHWLEDVERPLAAGRGDVMSKKDLLYYFKNNIWVTTSGHFSTPTVRYVADYLGPERIMFSVDTPYETIENGVGWFDGEEDALTRALGGEDGYKKVARENAKKLFKLTKYHDCDA
For B8, the “Dicamba Decarboxylase Activity” value was “Low” and the “Enzymatic Detection level” value was “Low”.

B9: 103 (protein)
chain: MAMEIPTEEIKFLKKEDVQNIDLNGMSKKERYEIWRRIPKVELHCHLDLTFSAEFFLKWARKYNLQPNMSDDEILDHYLFTKEGKSLAEFIRKAISVSDLYRDYDFIEDLAKWAVIEKYKEGVVLMEFRYSPTFVSSSYGLDVELIHKAFIKGIKNATELLNNKIHVALICISDTGHAAASIKHSGDFAIKHKHDFVGFDHGGREIDLKDHKDVYHSVRDHGLHLTVHAGEDATLPNLNTLYTAINILNVERIGHGIRVSESDELIELVKKKDILLEVCPISNLLLNNVKSMDTHPIRKLYDAGVKVSVNSDDPGMFLSNINDNYEKLYIHLNFTLEEFMIMNNWAFEKSFVSDDVKSELKALYF
modifications: Plasmodium yoelii yoelii
With B9 the “Dicamba Decarboxylase Activity” value was “No” and the “Enzymatic Detection level” value was “No”.

B10: 99 (protein, listed as Ralstonia solanacearum)
chain: MAIIDCHGHFTTAPTALEDWRKRQIANLATPALGPSPDDLKISDDALTEAIRANQLRLMQARGSDLTIFSPRASFMAHHIGDFHTSATWAAICNALCHRVSQLFPDHFVGAAMLPQSPGVDIRTCIPELARCIVDYGFVGVNLNPDPSGGHWTSPPLSDPYWFPLYEKLVEYDVPAMIHVSTSCNACFHTTGAHYLNADTTAFMQVLTSDLFRRFPTLKFVIPHGGGAVPYHWGRFRGLAQELKTPPLQEHLLHNVFFDTCVYHQPGIDLLTRVIPVDNILFASEMIGAVRGIDPETGHPFDDTRRYIDQAHTLSAEDRHKIYEGNARRVYPRLDARLKARGR
For B10, the “Dicamba Decarboxylase Activity” value was “No” and the “Enzymatic Detection level” value was “No”.

B11: 96 (protein)
chain: MAPLIVDVHTHVYPPAYMQMLRSRKTVPYVHDPSNNRDPRLIILSSDDDASIPLDQRGRPVDSSYWDINVKLSFMRQHGINCSVISLANPWLDFVEPAEAQMWAERINDDLEKTCATVNKAADPGNTLTLDQKETLFAFGALPLSAPSSESVVAEIKRLKTLEHLRGVIMGTSGLGKGLDDARLDPVWEALQETDMLMFLHPHYGLPEEAYGGPETTGRYGHVLPLALGFPLETTIAVTRMLLSGVFDRFPRLKILLAHSGGTLPFLAGRIESCILHERKFISGGGDVQGPQRSVWDVLKTNIYLDAVVYGKPGLEAAMTASGSDRLLFGTDHPFFPPLDSKDNSWPSVTTNYQAIHATFDTNSKTVADVLGGNAARILNLK
modifications: Aspergillus nidulans
With B11 the “Dicamba Decarboxylase Activity” value was “No” and the “Enzymatic Detection level” value was “No”.
